Experimental data taken from the FLAb antibody collection (doi:10.1101/2023.12.08.570889).

Molecular target: IL36R
Assay: Kd (SPR)

Binder | Kd
unnamed (protein) chain 1: QVQLVQSGAEVKKPGASVKVSCKASGYSFTSSWIHWVKQAPGQGLEWMGEINPGNVRTNYNENFRNKVTMTVDTSISTAYMELSRLRSDDTAVYYCTRVQFGEPYFDYWGQGTLVTVSS chain 2: QIVLTQSPGTLSLSPGERATMTCTASSSVSSSYFHWYQQKPGQAPRLWIYRTSRLASGVPDRFSGSGSGTDFTLTISRLEPEDAATYYCHQFHRSPLTFGAGTKLEIK | 1.61 nM
unnamed (protein) chain 1: QVQLVQSGAEVKKPGASVKVSCKASGYSFTSSWIHWVKQAPGQGLEWMGEINPGNVRTNYNENFRNKVTMTVDTSISTAYMELSRLRSDDTAVYYCTRVVYGEPYFDYWGQGTLVTVSS chain 2: QIVLTQSPGTLSLSPGERATMTCTASSSVSSSYFHWYQQKPGQAPRLWIYRTSRLASGVPDRFSGSGSGTDFTLTISRLEPEDAATYYCHQFHRSPLTFGAGTKLEIK | 0.649 nM
unnamed (protein) chain 1: QVQLVQSGAEVKKPGASVKVSCKASGYSFTSSWIHWVKQAPGQGLEWMGEINPGNVRTNYNENFRNKVTMTVDTSISTAYMELSRLRSDDTAVYYCTRMRYGEPWFDYWGQGTLVTVSS chain 2: QIVLTQSPGTLSLSPGERATMTCTASSSVSSSYFHWYQQKPGQAPRLWIYRTSRLASGVPDRFSGSGSGTDFTLTISRLEPEDAATYYCHQFHRSPLTFGAGTKLEIK | 68.3 nM
unnamed (protein) chain 1: QVQLVQSGAEVKKPGASVKVSCKASGYSFTSNWIHWVKQAPGQGLEWMGEIYPGNSNTNYNENFRNKVTMTVDTSISTAYMELSRLRSDDTAVYYCTRVRYGEPWFDYWGQGTLVTVSS chain 2: QIVLTQSPGTLSLSPGERATMTCTASSSVSSSYFHWYQQKPGQAPRLWIYRTSRLASGVPDRFSGSGSGTDFTLTISRLEPEDAATYYCHQFHRSPLTFGAGTKLEIK | 3.35 nM
unnamed (protein) chain 1: QVQLVQSGAEVKKPGASVKVSCKASGYSFTSSWIHWVKQAPGQGLEWMGEINPGNVRTNYNENFRNKVTMTVDTSISTAYMELSRLRSDDTAVYYCTRSRYGEPYFDYWGQGTLVTVSS chain 2: QIVLTQSPGTLSLSPGERATMTCTASSSVSSSYFHWYQQKPGQAPRLWIYRTSRLASGVPDRFSGSGSGTDFTLTISRLEPEDAATYYCHQFHRSPLTFGAGTKLEIK | 4.79 nM
unnamed (protein) chain 1: QVQLVQSGAEVKKPGASVKVSCKASGYSFTSSWIHWVKQAPGQGLEWMGEINPGNVRTNYNENFRNKVTMTVDTSISTAYMELSRLRSDDTAVYYCTRVSFGEPWFDYWGQGTLVTVSS chain 2: QIVLTQSPGTLSLSPGERATMTCTASSSVSSSYFHWYQQKPGQAPRLWIYRTSRLASGVPDRFSGSGSGTDFTLTISRLEPEDAATYYCHQFHRSPLTFGAGTKLEIK | 7.07 nM
unnamed (protein) chain 1: QVQLVQSGAEVKKPGASVKVSCKASGYSFTSSWIHWVKQAPGQGLEWMGEIYPGNSNTNYNENFRNKVTMTVDTSISTAYMELSRLRSDDTAVYYCTRLRYGEPYFDYWGQGTLVTVSS chain 2: QIVLTQSPGTLSLSPGERATMTCTASSSVSSSYFHWYQQKPGQAPRLWIYRTSRLASGVPDRFSGSGSGTDFTLTISRLEPEDAATYYCHQFHRSPLTFGAGTKLEIK | 6.22 nM
unnamed (protein) chain 1: QVQLVQSGAEVKKPGASVKVSCKASGYTFTSNWIHWVKQAPGQGLEWMGEIYPGNSNTNYNENFRNKVTMTVDTSISTAYMELSRLRSDDTAVYYCTRVRFGEPWFDYWGQGTLVTVSS chain 2: QIVLTQSPGTLSLSPGERATMTCTASSSVSSSYFHWYQQKPGQAPRLWIYRTSRLASGVPDRFSGSGSGTDFTLTISRLEPEDAATYYCHQFHRSPLTFGAGTKLEIK | 46.1 nM

Results, then the binder that gave them:

Kd | Binder
157 nM | unnamed (protein) chain 1: QVQLVQSGAEVKKPGASVKVSCKASGYTFTSSWIHWVKQAPGQGLEWMGEIYPGNSNTNYNENFRNKVTMTVDTSISTAYMELSRLRSDDTAVYYCTRSRYGEPWFDYWGQGTLVTVSS chain 2: QIVLTQSPGTLSLSPGERATMTCTASSSVSSSYFHWYQQKPGQAPRLWIYRTSRLASGVPDRFSGSGSGTDFTLTISRLEPEDAATYYCHQFHRSPLTFGAGTKLEIK
138 nM | unnamed (protein) chain 1: QVQLVQSGAEVKKPGASVKVSCKASGYTFTSSWIHWVKQAPGQGLEWMGEIKPGNSNTNYNENFRNKVTMTVDTSISTAYMELSRLRSDDTAVYYCTRVSYGEPYFDYWGQGTLVTVSS chain 2: QIVLTQSPGTLSLSPGERATMTCTASSSVSSSYFHWYQQKPGQAPRLWIYRTSRLASGVPDRFSGSGSGTDFTLTISRLEPEDAATYYCHQFHRSPLTFGAGTKLEIK
1.54 nM | unnamed (protein) chain 1: QVQLVQSGAEVKKPGASVKVSCKASGYSFTSSWIHWVKQAPGQGLEWMGEINPGNVRTNYNENFRNKVTMTVDTSISTAYMELSRLRSDDTAVYYCTRVVFGEPYFDYWGQGTLVTVSS chain 2: QIVLTQSPGTLSLSPGERATMTCTASSSVSSSYFHWYQQKPGQAPRLWIYRTSRLASGVPDRFSGSGSGTDFTLTISRLEPEDAATYYCHQFHRSPLTFGAGTKLEIK
0.888 nM | unnamed (protein) chain 1: QVQLVQSGAEVKKPGASVKVSCKASGYSFTSSWIHWVKQAPGQGLEWMGEINPGNVRTNYNENFRNKVTMTVDTSISTAYMELSRLRSDDTAVYYCTTVRYGEPYFDYWGQGTLVTVSS chain 2: QIVLTQSPGTLSLSPGERATMTCTASSSVSSSYFHWYQQKPGQAPRLWIYRTSRLASGVPDRFSGSGSGTDFTLTISRLEPEDAATYYCHQFHRSPLTFGAGTKLEIK
1.13 nM | unnamed (protein) chain 1: QVQLVQSGAEVKKPGASVKVSCKASGYSFTSSWIHWVKQAPGQGLEWMGEINPGNVRTNYNENFRNKVTMTVDTSISTAYMELSRLRSDDTAVYYCTRVFYGEPYFDYWGQGTLVTVSS chain 2: QIVLTQSPGTLSLSPGERATMTCTASSSVSSSYFHWYQQKPGQAPRLWIYRTSRLASGVPDRFSGSGSGTDFTLTISRLEPEDAATYYCHQFHRSPLTFGAGTKLEIK
54.3 nM | unnamed (protein) chain 1: QVQLVQSGAEVKKPGASVKVSCKASGYTFTSNWIHWVKQAPGQGLEWMGEIYPGNSNTNYNENFRNKVTMTVDTSISTAYMELSRLRSDDTAVYYCTRVKYGEPYFDYWGQGTLVTVSS chain 2: QIVLTQSPGTLSLSPGERATMTCTASSSVSSSYFHWYQQKPGQAPRLWIYRTSRLASGVPDRFSGSGSGTDFTLTISRLEPEDAATYYCHQFHRSPLTFGAGTKLEIK
31.8 nM | unnamed (protein) chain 1: QVQLVQSGAEVKKPGASVKVSCKASGYTFTSNWIHWVKQAPGQGLEWMGEIYPGNSNTNYNENFRNKVTMTVDTSISTAYMELSRLRSDDTAVYYCTRVRYGEPWFDYWGQGTLVTVSS chain 2: QIVLTQSPGTLSLSPGERATMTCTASSSVSSSYFHWYQQKPGQAPRLWIYRTSRLASGVPDRFSGSGSGTDFTLTISRLEPEDAATYYCHQFHRSPLTFGAGTKLEIK
274 nM | unnamed (protein) chain 1: QVQLVQSGAEVKKPGASVKVSCKASGYSFTSSWIHWVKQAPGQGLEWMGEINPGNVRTNYNENFRNKVTMTVDTSISTAYMELSRLRSDDTAVYYCTRQTYGEPYFDYWGQGTLVTVSS chain 2: QIVLTQSPGTLSLSPGERATMTCTASSSVSSSYFHWYQQKPGQAPRLWIYRTSRLASGVPDRFSGSGSGTDFTLTISRLEPEDAATYYCHQFHRSPLTFGAGTKLEIK
4.32 nM | unnamed (protein) chain 1: QVQLVQSGAEVKKPGASVKVSCKASGYSFTSSWIHWVKQAPGQGLEWMGEINPGNVRTNYNENFRNKVTMTVDTSISTAYMELSRLRSDDTAVYYCTRVRFGEPWFDYWGQGTLVTVSS chain 2: QIVLTQSPGTLSLSPGERATMTCTASSSVSSSYFHWYQQKPGQAPRLWIYRTSRLASGVPDRFSGSGSGTDFTLTISRLEPEDAATYYCHQFHRSPLTFGAGTKLEIK
0.758 nM | unnamed (protein) chain 1: QVQLVQSGAEVKKPGASVKVSCKASGYSFTSSWIHWVKQAPGQGLEWMGEINPGNVRTNYNENFRNKVTMTVDTSISTAYMELSRLRSDDTAVYYCTRVSFGEPYFDYWGQGTLVTVSS chain 2: QIVLTQSPGTLSLSPGERATMTCTASSSVSSSYFHWYQQKPGQAPRLWIYRTSRLASGVPDRFSGSGSGTDFTLTISRLEPEDAATYYCHQFHRSPLTFGAGTKLEIK
0.991 nM | unnamed (protein) chain 1: QVQLVQSGAEVKKPGASVKVSCKASGYSFTSSWIHWVKQAPGQGLEWMGEINPGNVRTNYNENFRNKVTMTVDTSISTAYMELSRLRSDDTAVYYCTRVTYGEPYFDYWGQGTLVTVSS chain 2: QIVLTQSPGTLSLSPGERATMTCTASSSVSSSYFHWYQQKPGQAPRLWIYRTSRLASGVPDRFSGSGSGTDFTLTISRLEPEDAATYYCHQFHRSPLTFGAGTKLEIK
